Experimental data taken from patent US20230002478A1 (TWIST BIOSCIENCE, published 2023).

B1: 6-3 (Fc fusion)
chain: EVQLVESGGGLVQPGGSLRLSCAASGFTFSPSWMGWFRQAPGKEREFVATINEYGGRNYADSVKGRFTISADNSKNTAYLQMNSLKPEDTAVYYCARVDRDFDYWGQGTLVTVSS
B2: 6-63 (Fc fusion)
chain: EVQLVESGGGLVQPGGSLRLSCAASGQTFNMGWFRQAPGKEREFVAAIGSGGSTSYADSVKGRFTISADNSKNTAYLQMNSLKPEDTAVYYCWRLGNDYFDYWGQGTLVTVSS

Key:
[1] = biological target: T1, SARS-CoV-2 S1 (HV69-70del, Y453F, D614G) (SARS-CoV-2, UniProt P0DTC2 16-685); assay: SPR
T1 construct: domain: S1

[2] = biological target: T2, SARS-CoV-2 S1 (HV69-70del, N501Y, D614G) (SARS-CoV-2, UniProt P0DTC2 16-685); assay: SPR
T2 construct: domain: S1

Row | Binder | Kd [1] | Kd [2]
1 | B1 | 23 nM | 9.3 nM
2 | B2 | 96 nM | 63 nM
